We go through one substance from publication PMC3858360.

For the assay, the target named is human Myo5a globular domain, Myo5a (1467–1855) (human) (UniProt Q9Y4I1). The assay can be described thus: SPR; Biacore 3000, 25°C; Myo5a GD covalently immobilised on a CM5 chip (50–100 RU); steady-state binding with a multi-injection protocol, HMM 0–413 nM; 20 mM MOPS-KOH pH 7.0, 0.1 M NaCl, 2 mM MgCl2, 0.5 mM EGTA, 10 µM Calmodulin, 1 mM TCEP. (SPR reads the build-up and loss of mass on a sensor chip optically.)
UniProt Q9Y4I1, sequence (Q9Y4I1 1467-1855): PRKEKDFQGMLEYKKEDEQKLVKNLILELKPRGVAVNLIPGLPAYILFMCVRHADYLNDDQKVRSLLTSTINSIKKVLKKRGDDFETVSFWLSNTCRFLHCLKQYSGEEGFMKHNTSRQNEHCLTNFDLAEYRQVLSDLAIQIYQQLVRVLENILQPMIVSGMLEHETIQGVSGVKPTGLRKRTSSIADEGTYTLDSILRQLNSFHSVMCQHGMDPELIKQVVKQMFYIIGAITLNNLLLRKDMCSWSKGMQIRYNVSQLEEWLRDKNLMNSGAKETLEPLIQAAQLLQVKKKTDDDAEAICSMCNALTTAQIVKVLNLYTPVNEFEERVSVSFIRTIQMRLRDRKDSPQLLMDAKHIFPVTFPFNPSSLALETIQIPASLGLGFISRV

What is called Kd is the concentration at which binding is half-saturated. “murine Myo5a HMM complex: Myo5a (1–1105) C-terminally fused to GCN4-Flag, coexpressed with essential light chains and calmodulins (from UniProt Q99104 1-1105; P0DP26 1-149)” gave a Kd of 30 nM.
